# Where a chain is given by its changes, count along the chain named. Names and notes keep the numbering of the source. Values joined by “and” are separate entries in the source; they are usually repeats but may differ in a detail not shown here. Equal values may be shown once. Read-outs that look alike come from different tables or passages of the source.
# T1: Commercial hCD3eg
# T1 chain 1: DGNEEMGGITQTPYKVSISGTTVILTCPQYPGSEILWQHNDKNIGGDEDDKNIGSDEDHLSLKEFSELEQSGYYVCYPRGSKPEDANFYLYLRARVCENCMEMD
# T1 chain 2: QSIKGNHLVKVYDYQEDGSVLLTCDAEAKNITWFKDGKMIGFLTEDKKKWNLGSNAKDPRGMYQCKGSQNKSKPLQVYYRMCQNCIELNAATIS
# T2: single chain human CD3ε-26mer-CD3γ (CD3εγ) (human)
# T2 construct: also called human CD3εγ
# T2 chain: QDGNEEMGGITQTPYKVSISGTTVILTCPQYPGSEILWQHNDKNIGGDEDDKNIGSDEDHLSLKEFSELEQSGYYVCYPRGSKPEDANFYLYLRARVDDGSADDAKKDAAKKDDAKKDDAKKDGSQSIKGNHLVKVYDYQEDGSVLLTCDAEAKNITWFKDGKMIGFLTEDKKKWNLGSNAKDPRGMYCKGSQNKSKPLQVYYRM
# T3: cyCD3εγ (cynomolgus monkey)
# T3 chain 1: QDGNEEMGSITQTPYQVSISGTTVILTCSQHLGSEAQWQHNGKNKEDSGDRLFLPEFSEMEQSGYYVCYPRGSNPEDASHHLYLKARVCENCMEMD
# T3 chain 2: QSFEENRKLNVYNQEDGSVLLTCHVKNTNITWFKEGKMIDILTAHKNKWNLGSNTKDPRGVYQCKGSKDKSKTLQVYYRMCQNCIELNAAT
# B1: murine 38E4 (antibody, V domains shown)
# VH: QVQLQQSGPELVKPGASVTISCTASGFTFTSYYIHWVRQRPGQGLEWIGWIYPENDNTKYNEKFKDKATLTADTSSSTAYMQLSSLTSEDSAVYYCARDGYSRYYFDYWGQGTTLTVSS
# VL: DIVMTQSPSFLAVSAGEKVTMSCKSSQSLLNSRTRKNYLAWYQQRPGQSPKLLIYWTSTRKSGVPDRFTGSGSGTDFTLTISSVQAEDLAIYYCKQSFILRTFGGGTKLEIK
# B2: 72H6 (antibody, IgG2a, V domains shown)
# VH: EVQLQQSGPELVKPGASVKISCKASGYSFTSYYIHWVKQRPGQGLEWIGWIFPGSDNTKYNEKFKGKATLTADTSSSTAYMQLSSLTSEDSAVYFCARNGNYAMDYWGQGTSVTVSS
# VL: B1 VL with D1E, M4L, T5S, F10S, R45K, T57A, K61E, I91V, F98Y, I99T
# notes: mouse hybridoma clone; also called 72H6 (xCD3)
# B3: murine 38E4 (antibody, V domains shown)
# VH: B1 VH
# VL: B1 VL
# notes: KD is printed as monovalent
# B4: SP34v52 Fab (Fab, V domains shown)
# VH: EVQLVESGGGLVQPGGSLRLSCAASGFTFNTYAMNWVRQAPGKGLEWVARIRSKYNNYATYYADSVKDRFTISRDDSKNTLYLQMNSLRAEDTAVYYCVRHGNFGNSYVSWFAYWGQGTLVTVSS
# VL: EAVVTQEPSLTVSPGGTVTLTCRSSTGAVTTSNYANWVQQKPGQAPRGLIGGTNKRAPWTPARFSGSLLGGKAALTLSGAQPEDEAEYYCALWYSNLWVFGGGTKLTVL
# B5: KH CD20 2H7v16/SP34v52 (bispecific antibody, V domains shown)
# VH 1: EVQLVESGGGLVQPGGSLRLSCAASGYTFTSYNMHWVRQAPGKGLEWVGAIYPGNGDTSYNQKFKGRFTISVDKSKNTLYLQMNSLRAEDTAVYYCARVVYYSNSYWYFDVWGQGTLVTVSS
# VL 1: DIQMTQSPSSLSASVGDRVTITCRASSSVSYMHWYQQKPGKAPKPLIYAPSNLASGVPSRFSGSGSGTDFTLTISSLQPEDFATYYCQQWSFNPPTFGQGTKVEIK
# VH 2: B4 VH
# VL 2: B4 VL
# modifications: Knob-into-hole full-length IgG; constant regions are not in the letters.
# notes: full-length knob-into-hole human IgG1 TDB; also called CD3/CD20 TDB 2H7v16/SP34v52
# B6: murine SP34 (antibody, V domains shown)
# VH: B4 VH with G15K, R19K, K78Q, N79S, T80I, S87N, R89K, A90T, V95M
# VL: QAVVTQESALTTSPGETVTLTCRSSTGAVTTSNYANWVQEKPDHLFTGLIGGTNKRAPGVPARFSGSLIGDKAALTITGAQTEDEAIYFCALWYSNLWVFGGGTKLTVL
# notes: KD is printed as monovalent
# B7: humanized 40G5c variant: VH1 graft + V67A + I69L + R71A / K4 graft (antibody, V domains shown)
# VH: EVQLVQSGAEVKKPGASVKVSCKASGYTFTNYYIHWVRQAPGQGLEWIGWIYPGDGNTKYNEKFKGRATLTADTSTSTAYLELSSLRSEDTAVYYCARDSYSNYYFDYWGQGTLVTVSS
# VL: DIVMTQSPDSLAVSLGERATINCKSSQSLLNSRTRKNYLAWYQQKPGQPPKLLIYWASTRESGVPDRFSGSGSGTDFTLTISSLQAEDVAVYYCTQSFILRTFGQGTKVEIK
# B8: KH CD20 2H7v16/hu40G5c (bispecific antibody, V domains shown)
# VH 1: B5 VH 1
# VL 1: B5 VL 1
# VH 2: B7 VH
# VL 2: B7 VL
# modifications: Knob-into-hole full-length IgG; constant regions are not in the letters.
# notes: also called KH CD20 2H7v16/40G5c; CD20KH (2H7v16/40G5c)
# B9: KH CD20 2H7v16/38E4v1 (bispecific antibody)
# anti-CD20 arm heavy chain: B5 VH 1
# anti-CD20 arm light chain: B5 VL 1
# anti-CD3 arm heavy chain: B7 VH with Y27F, N31S, G54E, D55N, G56D, G66D, A68V, L70I, S100G, N103R
# anti-CD3 arm light chain: B7 VL with P49S, A57T, E61K, T95K
# notes: also called 38E4v1 CHO
# B10: humanized 40G5c variant: VH1 graft + I69L + R71A / K4 graft (antibody, V domains shown)
# VH: B7 VH with A68V
# VL: B7 VL
# B11: humanized 40G5c variant: VH1 graft + V67A + R71A / K4 graft (antibody, V domains shown)
# VH: B7 VH with L70I
# VL: B7 VL
# B12: KH CD20 2H7v16/hu38E4c (bispecific antibody)
# anti-CD20 arm heavy chain: B5 VH 1
# anti-CD20 arm light chain: B5 VL 1
# anti-CD3 arm heavy chain: B7 VH with Y27F, N31S, G54E, D55N, G56D, G66D, A68V, L70I
# anti-CD3 arm light chain: B7 VL with P49S, A57T, E61K
# notes: also called CD3/CD20 TDB 2H7v16/38E4c
# B13: K&H 2H7v16/hu UCHT1v1 (bispecific antibody, V domains shown)
# VH 1: B5 VH 1
# VL 1: B5 VL 1
# VH 2: EVQLVESGGGLVQPGGSLRLSCAASGYSFTGYTMNWVRQAPGKGLEWVALINPYKGVTTYADSVKGRFTISVDKSKNTAYLQMNSLRAEDTAVYYCARSGYYGDSDWYFDVWGQGTLVTVSS
# VL 2: DIQMTQSPSSLSASVGDRVTITCRASQDIRNYLNWYQQKPGKAPKLLIYYTSRLESGVPSRFSGSGSGTDYTLTISSLQPEDFATYYCQQGNTLPWTFGQGTKVEIK
# modifications: Knob-into-hole full-length IgG; constant regions are not in the letters.
# notes: also called CD3/CD20 TDB 2H7v16/UCHT1v1
# B14: CD20KH (2H7v16/21A9) (bispecific antibody, V domains shown)
# VH 1: B5 VH 1
# VL 1: B5 VL 1
# VH 2: EVQLVESGGGVVQPGGSLKLSCAASGFTFSGSAMHWVRQASEKGLEWVGRIRSRANSYATAYAASVKDRFTISRDNSKNTAYLQMNSLKTEDTAVYYCIRDTMVRGIDYWGQGTLVTVSS
# VL 2: not shown
# modifications: Knob-into-hole full-length IgG; constant regions are not in the letters.
# notes: also called CD3/CD20 TDB 2H7v16/21A9
# Experiments:
# [1] = molecular target: T4, commercial CD3ε (Creative Biomart, Catalog Number CD3E-2194H) (human, UniProt P07766); test: binding affinity on commercial CD3ε (Creative Biomart CD3E-2194H); method not stated in the legend
# T4 construct: commercial recombinant protein; also called commercial CD3E
# [2] = molecular target: T1, Commercial hCD3eg; test: mu IgG against commercial hCD3eg; method not stated on the sheet
# [3] = molecular target: T2, single chain human CD3ε-26mer-CD3γ …; test: Biacore, monovalent KD of the CD3 arm; CD3 antigen not named on the sheet (reactivity hu, cyno)
# [4] = molecular target: T3, cyCD3εγ; test: monovalent binding affinity, method not stated on the sheet
# [5] = molecular target: T5, human CD3 on T cells (human, UniProt P07766 22-207); test: FACS on Jurkat cells (CD3), anti-huIgG-PE; number printed beside the curve without a quantity name, taken as EC50
# T5 construct: whole, on cells; On cells CD3ε stands in the CD3/TCR complex; also called CD3 antigen; CD3ε
# Method: (§1) Binding affinities for the each of the CD3/CD20 TDBs were tested by Biacore or FACS analysis, as described above for the anti-CD3 antibodies. Briefly, for Biacore binding assays, human CD3εγ was immobilized on Biacore Series S CM5 sensor chip using the amine coupling kit from Biacore and CD3/CD20 TDBs or Fab variants thereof were in the flow through. For FACS binding assays, either Bjab cells (for B cell antigens) or Jurkat cells (for CD3 antigen) were incubated with various concentrations of TDB antibodies at 4° C. for 30 minutes, then cells were washed and incubated with 2nd antibody (anti-huIgG-PE; BD Bioscience) for another 15 minutes, before cells were washed again and ready for FACS analysis.
# [6] = molecular target: T5, human CD3 on T cells; test: as above; remark: listed apart in the source
# Method: as §1
# [7] = molecular target: T4, commercial CD3ε (Creative Biomart, …); test: binding affinity on commercial CD3ε (Creative Biomart CD3E-2194H); method not stated in the legend; remark: listed apart in the source
# [8] = molecular target: T5, human CD3 on T cells; test: FACS on Jurkat cells (CD3), anti-huIgG-PE; number printed beside the curve without a quantity name, taken as EC50; remark: listed apart in the source
# Method: as §1
# [9] = molecular target: T5, human CD3 on T cells; test: FACS on Jurkat cells (CD3); EC50 table for the curves of FIGS. 21A-21B; source CHO (N297G)
# Method: as §1
# [10] = molecular target: T2, single chain human CD3ε-26mer-CD3γ …; test: Biacore, human CD3εγ on chip, TDB in flow through
# Method: as §1
# [11] = molecular target: T5, human CD3 on T cells; test: Scatchard; table headed 'Bivalent Binding Affinity', though its footnote reads 'monovalent binding Kd measured by scatchard'; cells not named
binder,measurement,setting,value
B1,Kd,[1],0.75 nM
B2,Kd,[2],2.5 nM
B3,Kd,[3],0.75 nM
B4,Kd,[4],12 nM
B5,EC50,[5],1.11 µg/mL
same,EC50,[6],0.6 µg/mL and 4 nM
B6,Kd,[3],1.9 nM
B7,Kd,[7],24 nM
B8,EC50,[8],1.6 µg/mL and 11 nM
same,EC50,[5],1.21 µg/mL
same,EC50,[6],1.25 µg/mL and 8.3 nM
B9,EC50,[9],0.24 µg/mL and ~1.6 nM
same,Kd,[10],1.28 nM and 1.3 nM
same,koff,[10],0.00515 s⁻¹
same,kon,[10],4.03e+06 M⁻¹ s⁻¹
same,EC50,[6],0.243 µg/mL and 1.6 nM
B10,Kd,[7],36 nM
B11,Kd,[7],37 nM
B12,EC50,[5],1.01 µg/mL
B13,Kd,[11],300 nM
B14,EC50,[8],1.6 µg/mL and 11 nM

# Reference: patent US20200299408A1 (Genentech, published 2020)
